Results: paper doi:10.1101/2020.01.12.903617, “The peptide sensor motif stabilizes the outward-facing conformation of TmrAB” (bioRxiv, 2020)
No end group written: not given here. fluorescein = fluorescein label attached to the Cys side chain

Molecular target: T1, TmrAB R121A^TmrB (Thermus thermophilus, UniProt Q72J05 1-600; Q72J04 1-578, R121A)
T1 construct: TmrA, Thermus thermophilus, the chain of TmrAB with the canonical Walker B motif; TmrB, Thermus thermophilus, the chain of TmrAB with the non-canonical Walker B motif
T1 sequence 1: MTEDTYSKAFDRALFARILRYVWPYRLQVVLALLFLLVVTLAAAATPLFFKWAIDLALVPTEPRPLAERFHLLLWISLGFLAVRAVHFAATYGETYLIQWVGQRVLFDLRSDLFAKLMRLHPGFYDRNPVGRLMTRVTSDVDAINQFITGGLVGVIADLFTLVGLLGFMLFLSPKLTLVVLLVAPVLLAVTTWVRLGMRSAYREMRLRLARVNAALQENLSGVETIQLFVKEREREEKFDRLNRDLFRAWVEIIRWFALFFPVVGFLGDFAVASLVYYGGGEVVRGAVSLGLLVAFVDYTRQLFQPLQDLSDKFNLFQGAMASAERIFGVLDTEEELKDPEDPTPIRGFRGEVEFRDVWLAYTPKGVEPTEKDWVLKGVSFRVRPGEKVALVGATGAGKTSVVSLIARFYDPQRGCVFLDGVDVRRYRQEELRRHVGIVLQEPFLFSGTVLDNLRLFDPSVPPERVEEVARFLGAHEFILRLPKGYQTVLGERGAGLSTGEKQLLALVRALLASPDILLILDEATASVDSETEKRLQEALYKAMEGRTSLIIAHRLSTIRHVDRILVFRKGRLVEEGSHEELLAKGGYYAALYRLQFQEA
T1 sequence 2: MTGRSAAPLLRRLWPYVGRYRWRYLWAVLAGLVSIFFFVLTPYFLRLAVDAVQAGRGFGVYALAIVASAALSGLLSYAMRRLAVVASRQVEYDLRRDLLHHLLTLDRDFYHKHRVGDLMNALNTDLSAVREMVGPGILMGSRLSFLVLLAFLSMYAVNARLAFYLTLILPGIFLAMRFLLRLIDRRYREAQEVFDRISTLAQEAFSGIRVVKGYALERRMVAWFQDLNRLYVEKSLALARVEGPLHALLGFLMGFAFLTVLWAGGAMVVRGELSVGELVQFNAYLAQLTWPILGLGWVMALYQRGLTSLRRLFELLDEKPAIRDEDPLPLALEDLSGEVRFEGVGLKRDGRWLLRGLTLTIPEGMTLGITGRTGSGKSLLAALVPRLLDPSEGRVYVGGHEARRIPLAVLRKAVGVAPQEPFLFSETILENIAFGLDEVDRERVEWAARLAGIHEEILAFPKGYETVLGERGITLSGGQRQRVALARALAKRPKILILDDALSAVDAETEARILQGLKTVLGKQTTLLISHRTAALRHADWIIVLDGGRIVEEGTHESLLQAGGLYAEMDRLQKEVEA
Test: fluorescence polarisation; 1.7 uM TmrAB with 50 nM RRY(C^Fluorescein)KSTEL in SEC buffer (20 mM HEPES, 150 mM NaCl, pH 7, 0.05% ß-DDM), 15 minutes on ice, in the absence or presence of 5 mM ATP and 10 mM MgCl2; read at 25°C (the results say 4°C); signal normalized to WT without ATP
Conditions: both partners purified

B1: fluorescent transport substrate peptide RRY(C^Fluorescein)KSTEL (peptide)
peptide: RRYC(fluorescein)KSTEL
notes: fluorescein-labelled transport substrate peptide of TmrAB; also called fluorescently-labeled peptide substrate; peptide substrate; source: bought: Genscript
  binding result: binds
